In one data set the target is T1, K18 Tau (Homo sapiens, UniProt P10636).
T1 construct: K18 Tau was first expressed, collected, and purified; His tag (cleaved yes); made in house
Kind of data set: Tau Kinetics Thioflavin T plate reader assay. As to conditions: 1 μM PLP/Pep. The class given is biochemical. How it is done:
(§1) Tau Kinetics Thioflavin T Plate Reader Assay Protocol: First, controls and the effects of varying concentrations of K18 Tau were examined (FIG. 24). In FIG. 24, 1X Tau refers to 10 μM K18 Tau final concentration in the well with 100 μl total volume (i.e., 0.5× Tau refers to 5 μM K18 Tau and 2× Tau refers to 20 μM K18 Tau). Before PLPs were added to K18 Tau, the concentration at which the mimetic aggregative polymers would not activate Thioflavin T was evaluated. Based on the results depicted in FIG. 25, a PLP concentration of 1 μM was selected for further experimentations. […] Given the goal to investigate effects of the PLPs, it was determined that too high of a concentration could easily be adjusted, whereas too low of a concentration could result in a false negative with respect to impact.
PLPs incorporating SEQ ID: 4 (“TP4”), SEQ ID: 2 (“TP7”), or SEQ ID: 10 (“TP12”) as peptide sidechains were tested. The PLPs, K18 Tau (10 μM) and Thio T (Sigma) at a final concentration of 10 μM was added, and aggregation was induced by the addition of a freshly prepared heparin sodium salt solution (Santa Cruz) at a final concentration of 44 μg/ml. For non-induced controls, assay buffer was added in place of heparin solution to a final volume of 100 μl per well. Aggregation reactions were carried out at 37° C. with continuous shaking and monitored via ThT fluorescence (excitation, 444 nm; emission, 485 nm; cutoff, 480 nm) in a Spectramax M5 microplate reader (Molecular Devices). Readings were taken every 5 min for a minimum of 24 h.
Table C. Summary of results depicted in FIGS. 26, 28, and 29 in the event the graphical representations are difficult to ascertain. Values are rounded to the nearest whole number. Tau 10 hr refers to the average amplitude (fluorescent intensity readout) of an n=6 of the control Tau (meaning no peptide or polymer added, just heparin, thioflavin T, and PBS) trace at 10 hour. The same applies to Tau 15 hr and Tau 20 hr. Avg Tau amplitude refers to the average of the amplitudes at 10, 15, and 20 hr in the previous columns. As Tau is the control for each individual plate, and these readings were done on three separate plates, there are 3 different sets of average amplitudes. Similar to the aforementioned, PLP or Pep 10 hr refers to the average amplitude (n=6 for PLP and n=3 for peptide) of the Tau trace treated with that compound at 10 hours. Avg P amplitude refers to the average of the amplitude at the 3 times, or the average of the 3 previous columns. PLP or Pep/Tau % is the result of dividing the Avg P amplitude by Avg Tau amplitude and multiplying by 100. % amp change refers to the change in amplitude given by subtracting Tau average amplitude from P average amplitude and dividing by Tau average amplitude and multiplying by 100.

A short description of data set [1]: Concentration dependence of polymer activation of Thioflavin T (no Tau). The following applies: 1 μM PLP, no Tau (FIG. 25).
Excerpt: FIG. 25: Concentration dependence of polymer activation of Thioflavin T. TP4: PLP homopolymer incorporating SEQ ID: 4 as peptide sidechains. TP7: PLP homopolymer incorporating SEQ ID: 2 as peptide sidechains. TP4 and TP7 controls: PLP homopolymer, thioflavin T, no heparin, and PBS. The remainder of controls were at baseline and were removed from this FIG. 25 to improve readability. ThioT control: no Tau, no heparin, thioflavin T and PBS. ThioT heparin control: no Tau, no PLPs, thioflavin T, heparin, and PBS. n=3.
as §1

Data set [2] can be described thus: Liquid-liquid phase separation (LLPS) of rhodamine labeled PLPs. The data set is classed as physicochemical. The following applies: HEPES buffer with heparin, room temperature. How it is done: Solutions were dissolved in HEPES buffer: 10 mM HEPES buffer (pH 7.4) with 0.1 mM EDTA and 2 mM DTT, Media buffer: Dulbecco Modified Eagles Medium (high glucose) with 2 mM L-glutamine with 10% Fetal Bovine Serum, 1% Penicillin/Streptomycin, or water. Different crowding agents were also tested using HEPES buffer—PEG and heparin. For heparin, stock solutions of 10 μM of each rhodamine labeled PLP (using either SEQ ID: 4 or SEQ ID: 7 as peptide monomers) and 30 μM of heparin sodium salt were prepared in buffer and kept refrigerated. Before experiments, solutions were given at least 30 min to come to room temperature and experiments were carried out at room temperature. In the microscope room, 20 μL of PLP was added to 5 μL of heparin and mixed gently in a microcentrifuge tube. 5 μL of solution was immediately pipetted onto Fisherbrand glass microscope slides and coverslip applied. All reactions were visualized on Olympus BX53 Fluorescent Microscope using the 581 nm laser to monitor the rhodamine, as well as brightfield. LLPS occurred within 60 min of initiation.

Another data set in a line: Circular dichroism. The class given is physicochemical. The following applies: 37° C., Tris buffer pH 7.4. On the procedure: The proteomimetic similarities were further investigated using circular dichroism. Samples tested included K18 Tau, PLPs having SEQ ID: 4, SEQ ID: 2, and SEQ ID: 10, as well as said PLPs with K18 Tau. Each of these samples were dissolved in Tris buffer (10 mM Tris, 50 mM NaF, 0.5 mM dithiothreitol) and pH was adjusted to 7.4. Samples were tested with and without the addition of heparin. For samples containing heparin, samples were incubated in the presence of 10 μM heparin sodium salt for 24 hours. Polymers and peptides were run at 37° C., at a concentration of 3 mg/10 ml and K18 Tau was run at 10 uM. Parameters were: 1 mm quartz cuvette, continuous scan at 10 nm/min over 260 to 200 nm, 3 acquisitions averaged for one trace.
For orientation: Circular dichroism is widely used to follow secondary structure.

Data set [3] deals with Mouse striatal cells HdhQ7/7. Briefly: Cell permeability assay with rhodamine labeled PLPs (confocal imaging). The class given is cell-based. The following applies: incubated with the cells for 24 hours. How it is done:
Mouse striatal cells HdhQ7/7 from Coriell Institute were plated in 4-chamber 35 mm round glass-bottom dishes at a density of 50,000 per well. Cells were incubated for 24 hours in a 5% CO2 atmosphere at 33° C. Rhodamine labeled PLPs, rhodamine dye, and vehicle control in 10% FBS DMEM medium without phenol red were incubated with the cells for 24 hours, respectively. The cell nuclei (stained with Hoechst) were accomplished using a 405 nm laser with a 15% laser power. The cell membrane (stained with Wheat Germ Agglutinin, Alexa Fluor 488 Conjugate) was accomplished using a 488 nm laser with a 12% laser power. Cell imaging for Rhodamine fluorescence was accomplished using a 581 nm laser with an 8% laser power.

A short description of data set [4]: STEM / dry state TEM of PLP homopolymers. The data set is classed as physicochemical. As to conditions: prepared in H2O. On the procedure:
Using standard STEM protocols, PLPs having SEQ ID: 2 or SEQ ID: 4 as peptide monomers were prepared in H2O and visualized. […] Further, from the results depicted in FIG. 17, the homopolymer the beta sheet forming nature was confirmed. After putting the PLPs in HEPES LLPS buffer and heating to 37° C. (i.e., body temperature), a time course established the fibrilization of the polymer on dry state TEM. The same fibrilization was seen on purified K18 Tau protein 24 hours after incubation with heparin in PBS as depicted in FIG. 19. The remarkably similar characteristics was a testament to the mimetic capabilities of the PLP.

The values below come from patent US20250360220A1, “REGULATION OF TAU USING PROTEIN-LIKE POLYMERS AND USES THEREOF” (NORTHWESTERN UNIVERSITY, priority 2022, published 2025).

T1 sequence (P10636 561-685 limits assumed): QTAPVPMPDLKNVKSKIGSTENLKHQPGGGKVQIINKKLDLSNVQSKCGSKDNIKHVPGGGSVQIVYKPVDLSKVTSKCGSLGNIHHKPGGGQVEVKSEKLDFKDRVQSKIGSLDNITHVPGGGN

As to “TP7: PLP generated from peptide monomers characterized by SEQ ID: 2 (DRVQIVYKRR)”, in the data set with K18 Tau (Avg P amplitude divided by Avg Tau amplitude x 100), the “PLP or Pep/Tau %” value was found to be 110%. In addition, in the data set with K18 Tau (K18 Tau 10 μM, heparin, thioflavin T, PBS, 10 hr), the “PLP or Pep 10 hr (average amplitude, fluorescent intensity readout, of the Tau trace treated with that compound)” value amounted to 633. The “PLP or Pep 15 hr (average amplitude)” value in the data set with K18 Tau (K18 Tau 10 μM, heparin, thioflavin T, PBS, 15 hr) is 715. Moreover, the “PLP or Pep 20 hr (average amplitude)” value with K18 Tau (K18 Tau 10 μM, heparin, thioflavin T, PBS, 20 hr) is given as 672. Besides, the “Avg P Amplitude” value with K18 Tau (average of the amplitudes at 10, 15 and 20 hr) is listed as 673. In addition, the “% amp change” value with K18 Tau (change in amplitude relative to control Tau) was 11%. In addition, the “Thioflavin T signal of the polymer” value in data set [1] is listed as “negligible signal”. Besides, the Liquid-liquid phase separation result in data set [2] was “capable of liquid-liquid phase separation”. For the same substance, the “CD conformation of PLPs” value in the data set “Circular dichroism” (after addition of heparin) is given as “beta sheet formation”; in the data set “Circular dichroism” (before heparin was added) it was “random coil formations”. In data set [3], the “Capability to permeate the striatal cells” value was “demonstrated the capability to permeate the striatal cells”. Besides, the “Conformation by STEM” value in data set [4] was “beta sheet conformations”.
